Experimental findings from article PMC5731645 (Neuron, 2017) are described below.

Like-named read-outs stand apart in the source and are kept apart here.

B1: Ndel1 with the C-terminal half (aa 194–345) truncated (domain or fragment, mouse, UniProt Q9ERR1-1 1-193, looked up)
chain: MDGEDIPDFSSLKEETAYWKELSLKYKQSFQEARDELVEFQEGSRELEAELEAQLVQAEQRNRDLQADNQRLKYEVEALKEKLEHQYAQSYKQVSVLEDDLSQTRAIKEQLHKYVRELEQANDDLERAKRATIVSLEDFEQRLNQAIERNAFLESELDEKESLLVSVQRLKDEARDLRQELAVRERQQEVTRK
B2: full-length Ndel1 (natural protein, mouse, UniProt Q9ERR1-1 1-345, looked up)
chain: MDGEDIPDFSSLKEETAYWKELSLKYKQSFQEARDELVEFQEGSRELEAELEAQLVQAEQRNRDLQADNQRLKYEVEALKEKLEHQYAQSYKQVSVLEDDLSQTRAIKEQLHKYVRELEQANDDLERAKRATIVSLEDFEQRLNQAIERNAFLESELDEKESLLVSVQRLKDEARDLRQELAVRERQQEVTRKSAPSSPTLDCEKMDSAVQASLSLPATPVGKGTENSFPSPKAIPNGFGTSPLTPSARISALNIVGDLLRKVGALESKLAACRNFAKDQASRKSYVPGSVNCGVMNSNGPECPRSGRATFFHKGAVNGFDPAPPPPGLGSSRPSSAPGMLPLSV
B3: full-length Nde1 (natural protein, human, UniProt Q9NXR1-2 1-335, looked up)
chain: MEDSGKTFSSEEEEANYWKDLAMTYKQRAENTQEELREFQEGSREYEAELETQLQQIETRNRDLLSENNRLRMELETIKEKFEVQHSEGYRQISALEDDLAQTKAIKDQLQKYIRELEQANDDLERAKRATIMSLEDFEQRLNQAIERNAFLESELDEKENLLESVQRLKDEARDLRQELAVQQKQEKPRTPMPSSVEAERTDTAVQATGSVPSTPIAHRGPSSSLNTPGSFRRGLDDSTGGTPLTPAARISALNIVGDLLRKVGALESKLASCRNLVYDQSPNRTGGPASGRSSKNRDGGERRPSSTSVPLGDKGLDTSCRWLSKSTTRSSSSC
B4: DISC1 322–852 (domain or fragment, mouse, UniProt Q811T9-1 322-852, looked up)
chain: ADAHGWHTLLREWEPMLQDYLLSNRRQLEVTSLILKLQKCQEKVVEDGDYDTAETLRQRLEELEQEKGRLSWALPSQQPALRSFLGYLAAQIQVALHGATQRAGSDDPEAPLEGQLRTTAQDSLPASITRRDWLIREKQRLQKEIEALQARMSALEAKEKRLSQELEEQEVLLRWPGCDLMALVAQMSPGQLQEVSKALGETLTSANQAPFQVEPPETLRSLRERTKSLNLAVRELTAQVCSGEKLCSSLRRRLSDLDTRLPALLEAKMLALSGSCFSTAKELTEEIWALSSEREGLEMFLGRLLALSSRNSRRLGIVKEDHLRCRQDLALQDAAHKTRMKANTVKCMEVLEGQLSSCRCPLLGRVWKADLETCQLLMQSLQLQEAGSSPHAEDEEQVHSTGEAAQTAALAVPRTPHPEEEKSPLQVLQEWDTHSALSPHCAAGPWKEDSHIVSAEVGEKCEAIGVKLLHLEDQLLGAMYSHDEALFQSLQGELQTVKETLQAMILQLQPTKEAGEASASYPTAGAQETEA
B5: DISC1 765–835 (domain or fragment, mouse, UniProt Q811T9-1 765-835, looked up)
chain: GPWKEDSHIVSAEVGEKCEAIGVKLLHLEDQLLGAMYSHDEALFQSLQGELQTVKETLQAMILQLQPTKEA

Data set [1] concerns the molecule itself. Kind of data set: SEC-MALS. (In general: In gel filtration, larger molecules generally elute earlier.)
The target of data set [2] is B4. Kind of data set: ITC.
Data set [3] has as its target B3. Kind of data set: ITC. On the technique in general: Isothermal titration calorimetry measures the heat released or taken up as one component is titrated into another.
Data set [4] deals with the molecule itself. In words: SEC-MALS. This is another data set of the same source.
Data set [5] addresses T1, trx-Ndel1 CT-CC (mouse, UniProt Q9ERR1-1 238-284).
T1 chain (looked up): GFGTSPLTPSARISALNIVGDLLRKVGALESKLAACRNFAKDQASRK
Kind of data set: SEC-MALS.

Data set [6] deals with B5. In words: ITC.
Data set [7] addresses T2, DISC1 765–852 (mouse, UniProt Q811T9-1 765-852).
T2 sequence (looked up): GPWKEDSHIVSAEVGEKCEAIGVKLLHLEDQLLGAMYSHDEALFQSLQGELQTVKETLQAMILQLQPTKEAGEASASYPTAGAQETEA
In words: NMR structure.

One may read the stoichiometry N as the number of molecules, sites or subunits per partner or assembly. By Kd is commonly meant a measure of binding affinity in units of concentration. A high value points to a looser complex.

Consider B1, for which the “stoichiometry N” value in data set [1] was found to be 2.
Same read-out and setting: in the case of B2 it was 2.
As for B3, the Kd in data set [2] is about 40 nM.
Consider B4, for which, in data set [3], the “stoichiometry N” value was found to be 1.
With B5, the binding result in data set [3] is “binds”. Further, the “stoichiometry N” value in data set [4] was found to be 2; in data set [5], 1.
For STGGTPLTPAARISALNIVGDLLRKVGALESKLASCRNLVYDQSPNRT (domain or fragment, human, UniProt Q9NXR1-2 239-286, looked up) [Nde1 CT-CC], the binding result in data set [6] is reported as “binds”.
With GFGTSPLTPSARISALNIVGDLLRKVGALESKLAACRNFAKDQASRK (domain or fragment, mouse, UniProt Q9ERR1-1 238-284, looked up) [Ndel1 CT-CC], the binding result in data set [7] and in data set [6] was “binds” in each case.
